The values that follow come from patent US20070066809A1.

The target in one assay is MAb 458-4. Kind of assay: MAb inhibition ELISA; soluble inhibitor of MAb binding to the coated C-terminal target peptide-BSA. A general note: ELISA stands for enzyme-linked immunosorbent assay.
The next assay concerns the target MAb 458-2. The description is as above.
A further assay deals with MAb 458-1. The assay is described as above.
Another assay addresses MAb 458-5. Described as above.
A further assay deals with MAb 458-3. The assay is described as above.
Another assay deals with MAb 445-1. Kind of assay: MAb inhibition ELISA; soluble inhibitor of MAb binding to coated hG34(16-34)-Gly 35-BSA.
The next assay concerns the target MAb 445-2. The assay is described as above.
In a further assay the target is MAb 400-2. Kind of assay: MAb inhibition ELISA; soluble inhibitor of MAb binding to coated hG17(1-9)-“Ala”-BSA.
The target of a further assay is MAb 400-4. The description is as above.
The next assay has as its target MAb 400-3. Described as above.
Another assay deals with MAb 400-1. The description is as above.
The next assay addresses MAb 401-2. Put plainly: MAb inhibition ELISA; soluble inhibitor of MAb 401-2 binding to the coated G34 N-terminal target antigen.

Where no end group is shown, it is not given here. [ ]: non-standard residue; d: D form. pGlu = O=C1CC[C@@H](C(=O)O)N1

For the molecule DYMGWMDF-NH2 [CCK (26-33) unsulfated], the % Inhibition at 10 nmol/ml (250 pmoles/well) came out at 83.4% with MAb 458-4; 84.8% with MAb 458-2; 93.8% in the assay with MAb 458-1; 92% with MAb 458-5; 84.8% in the assay with MAb 458-3.

As to [pGlu]GPWLEEEEEAYGWMDFG [human glycine-extended gastrin-17 (G17-Gly)], in the assay with MAb 458-1, the % Inhibition at 10 nmol/ml (250 pmoles/well) was 2.1%. Moreover, the half-maximal inhibitory concentration (IC50) in the assay with MAb 445-1 was 700 nM; with MAb 445-2, 5000 nM; in the assay with MAb 400-2 it was 77 nM; in the assay with MAb 400-4 it was 699 nM; with MAb 400-3, 1390 nM; with MAb 400-1 it was 1790 nM.

EGPWLEEEEEAYGWMDF (N-terminal pyroglutamic acid (pGlu); C-terminal Phe-NH2 (amide)) [human gastrin-17 (G17), mature amidated form]: the % Inhibition at 10 nmol/ml (250 pmoles/well) with MAb 458-4 was determined as 88.4%; with MAb 458-2 it was 86%; with MAb 458-1, 94.3%; with MAb 458-5, 91.9%; with MAb 458-3 it was 92.4%. In addition, the IC50 in the assay with MAb 400-2 was 85 nM; with MAb 400-4 it was 620 nM; in the assay with MAb 400-3 it was 1080 nM; with MAb 400-1, 2030 nM.

In the case of EGPWLEKEEAAYGWMDF (ends and bridges not checked) [equine G17], the IC50 with MAb 400-2 was determined as 86 nM; in the assay with MAb 400-4, 1690 nM; with MAb 400-3 it was 120 nM; with MAb 400-1 it was 1650 nM.

B1: human gastrin-34 (G34), amidated (peptide)
peptide: [pGlu]LGPQGPPHLVADPSKKEGPWLEEEEEAYGWMDF-NH2
SMILES: CSCC[C@H](NC(=O)[C@H](Cc1c[nH]c2ccccc12)NC(=O)CNC(=O)[C@H](Cc1ccc(O)cc1)NC(=O)[C@H](C)NC(=O)[C@H](CCC(=O)O)NC(=O)[C@H](CCC(=O)O)NC(=O)[C@H](CCC(=O)O)NC(=O)[C@H](CCC(=O)O)NC(=O)[C@H](CCC(=O)O)NC(=O)[C@H](CC(C)C)NC(=O)[C@H](Cc1c[nH]c2ccccc12)NC(=O)[C@@H]1CCCN1C(=O)CNC(=O)[C@H](CCC(=O)O)NC(=O)[C@H](CCCCN)NC(=O)[C@H](CCCCN)NC(=O)[C@H](CO)NC(=O)[C@@H]1CCCN1C(=O)[C@H](CC(=O)O)NC(=O)[C@H](C)NC(=O)[C@@H](NC(=O)[C@H](CC(C)C)NC(=O)[C@H](Cc1c[nH]cn1)NC(=O)[C@@H]1CCCN1C(=O)[C@@H]1CCCN1C(=O)CNC(=O)[C@H](CCC(N)=O)NC(=O)[C@@H]1CCCN1C(=O)CNC(=O)[C@H](CC(C)C)NC(=O)[C@@H]1CCC(=O)N1)C(C)C)C(=O)N[C@@H](CC(=O)O)C(=O)N[C@@H](Cc1ccccc1)C(N)=O
B1: the % Inhibition at 10 nmol/ml (250 pmoles/well) in the assay with MAb 458-4 worked out at 86.7%; in the assay with MAb 458-2, 84.5%; with MAb 458-1 it was 93.5%; with MAb 458-5 it was 91.5%; with MAb 458-3 it was 90.7%. In the assay with MAb 401-2, this molecule had an IC50 of 700 nM.

For the molecule CPPPPSSYGWMDFG [hG17 (12-17)-Gly18 peptide (immunogen peptide …)], the IC50 was 4000 nM with MAb 445-1 and 13000 nM in the assay with MAb 445-2.

[pGlu]GPWLEEEE (ends and bridges not checked) [hG17(1-9) N terminus peptide] yielded a % Inhibition at 10 nmol/ml (250 pmoles/well) with MAb 458-3 of 1.2%.

As usually defined, the % Inhibition is the drop in the measured response relative to a control, in per cent. A high value points to a response far below the control. The IC50 is the concentration needed to halve the response being measured. Low readings indicate inhibition by little substance, high ones a need for much substance.
